This is an account of results in patent US20200299706A1 (COLD SPRING HARBOR LABORATORY, published 2020).

Data set [1] concerns the molecule itself. As to the kind of experiment: yeast two-hybrid (Matchmaker Gold; growth on -L-T-H medium). On the procedure:
(§1) Protein interaction assays in yeast were performed using the Matchmaker Gold Yeast Two-Hybrid System (Clontech) as described before (Park et al., 2014b). The coding sequences for bait proteins were cloned into the pGBKT7 vector, and the resulting vectors were transformed into the Y2HGold yeast strain. The coding sequences for prey proteins were cloned into the pGADT7 AD vector, and the resulting vectors were transformed into the Y187 yeast strain. After mating the two yeast strains expressing bait and prey proteins, diploid yeast cells were selected and grown on dropout medium without leucine and tryptophan. To assay protein-protein interactions, clones were grown on triple-dropout medium without leucine, tryptophan, and histidine for 3 d at 30° C. To block auto-activation, 3 mM 3-amino-1,2,4-triazole (3-AT) were added or adenine was removed from the triple-dropout medium. All primer sequences used for cloning can be found in Table 2.

Data set [2] concerns the molecule itself. As to the kind of experiment: yeast two-hybrid, FIG. 5C. How it is done:
as §1

B1: EJ2 (Enhancer-of-Jointless-2, Solyc03g114840) SEP4-homolog MADS-box protein (other)
chain: MGRGRVELKRIENKINRQVTFAKRRNGLLKKAYELSVLCDAEVALIIFSNRGKLYEFCSTSSMVKTIEKYQRCSYATLEANQSVTDTQNNYHEYLRLKARVELLQRSQRNFLGEDLGTLSSKDLEQLENQLESSLKQIRSRKTQFMLDQLADLQQKEQMLAESNRLLRRKLEESVAGFPLRLCWEDGGDHQLMHQQNRLPNTEGFFQPLGLHSSSPHFGYNPVNTDEVNAAATAHNMNGFIHGWML
B1: in data set [1], the binding result was “no binding”.

B2: J2 (Jointless-2, Solyc12g038510) SEP4-homolog MADS-box protein (other)
chain: MGRGRVELKRIENKINRQVTFAKRRNGLLKKAYELSILCDAEVALIIFSSRGKLYEFSSASSMMTTLEKYQQCSYASLDPMLPVSDTQMNYNEYVRLKARVELLQRSQRHILGEDLGTLNSKELEQLEHQLDASLKKVRSKKTQSMLDQLADLQEKEQMLEEANKQLKNKLEESAARIPLGLSWGNNGGQTMEYNRLPPQTTAQPFFQPLRLNSSSPQFGYNPNMGANDHEVNAATTAHNINGFIPGWML
As for B2, the binding result in data set [2] is reported as “binds”.
